Series [1] concerns the target PIP5K1A (purified, in vitro kinase assay) (UniProt Q99755).
The target in series [2] is T1, PIP5K1A (purified, in vitro kinase assay), Q99755.
T1 chain: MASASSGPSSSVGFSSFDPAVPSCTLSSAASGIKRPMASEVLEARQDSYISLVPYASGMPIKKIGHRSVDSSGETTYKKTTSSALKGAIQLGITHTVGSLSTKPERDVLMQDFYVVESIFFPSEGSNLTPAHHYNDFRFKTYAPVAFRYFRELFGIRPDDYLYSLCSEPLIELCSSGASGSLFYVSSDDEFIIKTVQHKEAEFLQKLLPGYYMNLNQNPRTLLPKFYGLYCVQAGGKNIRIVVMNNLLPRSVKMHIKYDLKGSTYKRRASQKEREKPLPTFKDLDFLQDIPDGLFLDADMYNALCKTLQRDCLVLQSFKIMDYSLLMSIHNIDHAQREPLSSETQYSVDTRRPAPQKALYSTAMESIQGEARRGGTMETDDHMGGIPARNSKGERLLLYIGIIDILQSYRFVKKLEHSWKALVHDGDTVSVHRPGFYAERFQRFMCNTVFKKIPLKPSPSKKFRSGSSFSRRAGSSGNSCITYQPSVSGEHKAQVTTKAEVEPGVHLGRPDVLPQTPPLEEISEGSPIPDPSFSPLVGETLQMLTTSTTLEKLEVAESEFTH

Series [3] deals with endogenous PIP5K1A (293T lysate) (UniProt Q99755 1-562, limits assumed). Put plainly: GST pulldown from 293T lysates with bead-bound bait, western blot (FIG. 3J). As to the method: These lysates and purified protein were incubated together at 4 degrees for 1 hour before the beads were again pelleted, washed with IP buffer three times, eluted with 2M NaCl, and analyzed by SDS PAGE and western blot.

The target in another series is T2, PIP5K1A (Homo sapiens, UniProt Q99755).
T2 construct: made in house; host or cells: E. coli
Put plainly: In vitro kinase assay: conversion of PI(4)P to radiolabeled PI(4,5)P2 by PIP5K1A with purified PIP4K proteins added. The series is classed as biochemical. Particulars: for inhibition of PIP5K1A activity (PI(4)P to PI(4,5)P2): purified proteins, PI(4)P liposomes, 2-10 fold molar excess of PIP4K. The protocol:
BL21 bacterial cells were transfected with pGEX vectors with PIP4K isoform coding sequence variants. Cells were grown in 1 L of TB at 37° at 200 rpm until 0.8 OD, at which point 500 uL of 1M IPTG was added. Cultures were shaken overnight at room temp for protein induction and pelleted at 5000 g for 15 minutes. Cells were lysed (50 mM Tris pH 7.5, 500 mM NaCl, 10 mM MgCl2, 10% glycerol, DTT, lysozyme, protein/phosphatase inhibitors), sonicated for 1 minute (output 4, continuous duty cycle) and spun down at 10,000 g for 1 hour. Supernatant was kept for further purification and cleavage according to manufacturer's protocol using glutathione sepharose beads.
Cells were trypsinized and normalized for cell number. Cell pellets, or E. coli purified proteins were resuspended in HNE buffer (20 mM HEPES pH 7.4, 100 mM NaCl, 0.5 mM EGTA), and sonicated in the presence of 32P-γ-ATP, and liposomes (10 ug PS, 1 ug PI(4)P in 30 mM HEPES pH 7.4, 1 mM EGTA). Liposome lipids were purchased from Avanti. Reactions were stopped by addition of 50 uL of 4N HCL. To extract lipids, 100 μL of MeOH:CHCl3 (1:1) was added and samples were vortexed 2×30 seconds. Samples were spun down at top speed for 2 min and the organic phase containing phosphatidylinositol lipids (bottom) were separated using thin-layer chromatography (TLC) using 1-propanol: 2N acetic acid (65:35 v/v). TLC plates were prepared ahead of time by coating with 1% Potassium Oxalate. Phosphorylated lipids were visualized by autoradiography on a GE Typhoon FLA 7000 and quantified using ImageQuant TL software.

Numbering of substitutions follows the chain as printed.

GST-PIP4K2C 74DD to 74NN: the “in vitro kinase assay: conversion of PI(4)P to radiolabeled PI(4,5)P2 by PIP5K1A (FIG. 4H)” value in series [1] is listed as “Mutating 74DD to be 74NN or mutating 91REN to be 91 EED within GST-PIP4K2C did not prevent this protein from inhibiting PIP5K1A”.
The same measure, in the same setting: under GST-PIP4K2C 91REN to 91EED stands “Mutating 74DD to be 74NN or mutating 91REN to be 91 EED within GST-PIP4K2C did not prevent this protein from inhibiting PIP5K1A”.

B1: PIP4K2C (purified) (protein)
chain: MASSSVPPATVSAATAGPGPGFGFASKTKKKHFVQQKVKVFRAADPLVGVFLWGVAHSINELSQVPPPVMLLPDDFKASSKIKVNNHLFHRENLPSHFKFKEYCPQVFRNLRDRFGIDDQDYLVSLTRNPPSESEGSDGRFLISYDRTLVIKEVSSEDIADMHSNLSNYHQYIVKCHGNTLLPQFLGMYRVSVDNEDSYMLVMRNMFSHRLPVHRKYDLKGSLVSREASDKEKVKELPTLKDMDFLNKNQKVYIGEEEKKIFLEKLKRDVEFLVQLKIMDYSLLLGIHDIIRGSEPEEEAPVREDESEVDGDCSLTGPPALVGSYGTSPEGIGGYIHSHRPLGPGEFESFIDVYAIRSAEGAPQKEVYFMGLIDILTQYDAKKKAAHAAKTVKHGAGAEISTVHPEQYAKRFLDFITNIFA
As to B1, the “in vitro kinase assay: conversion of PI(4)P to radiolabeled PI(4,5)P2 by PIP5K1A (FIG. 3K)” value in series [2] is reported as “PIP5K1A, which is inhibited by PIP4K2C but not PIP4K2C^VD”.

B2: GST-PIP4K2C^VD (enzyme)
chain: B1 chain with V69E, M70I, L71F, D74N, D75N
notes: the text and the Quik-2CVD primer give EIF, which is used here; not shown: glutathione S-transferase (GST) tag from a pGEX vector
With B2, in series [3], the binding result was “no binding”. Also, the “in vitro kinase assay: conversion of PI(4)P to radiolabeled PI(4,5)P2 by PIP5K1A (FIG. 3K)” value in series [2] was “PIP4K2C^VD failed to inhibit PIP5K1A activity”.

B3: PIP4K2A (purified) (protein)
chain: MATPGNLGSSVLASKTKTKKKHFVAQKVKLFRASDPLLSVLMWGVNHSINELSHVQIPVMLMPDDFKAYSKIKVDNHLFNKENMPSHFKFKEYCPMVFRNLRERFGIDDQDFQNSLTRSAPLPNDSQARSGARFHTSYDKRYIIKTITSEDVAEMHNILKKYHQYIVECHGITLLPQFLGMYRLNVDGVEIYVIVTRNVFSHRLSVYRKYDLKGSTVAREASDKEKAKELPTLKDNDFINEGQKIYIDDNNKKVFLEKLKKDVEFLAQLKLMDYSLLVGIHDVERAEQEEVECEENDGEEEGESDGTHPVGTPPDSPGNTLNSSPPLAPGEFDPNIDVYGIKCHENSPRKEVYFMAIIDILTHYDAKKKAAHAAKTVKHGAGAEISTVNPEQYSKRFLDFIGHILT
Take B3: the “inhibition of PIP5K1A activity in presence of detergent” value with PIP5K1A (0.1% Triton-X100, no PI(4)P liposomes) is given as “eliminated the ability of PIP4K2A to inhibit PIP5K1A”. Also, in the series with PIP5K1A, the “inhibition of PIP5K1A activity (PI(4)P to PI(4,5)P2)” value is on record as “inhibited”.

B4: PIP4K2B (purified) (protein)
chain: MSSNCTSTTAVAVAPLSASKTKTKKKHFVCQKVKLFRASEPILSVLMWGVNHTINELSNVPVPVMLMPDDFKAYSKIKVDNHLFNKENLPSRFKFKEYCPMVFRNLRERFGIDDQDYQNSVTRSAPINSDSQGRCGTRFLTTYDRRFVIKTVSSEDVAEMHNILKKYHQFIVECHGNTLLPQFLGMYRLTVDGVETYMVVTRNVFSHRLTVHRKYDLKGSTVAREASDKEKAKDLPTFKDNDFLNEGQKLHVGEESKKNFLEKLKRDVEFLAQLKIMDYSLLVGIHDVDRAEQEEMEVEERAEDEECENDGVGGNLLCSYGTPPDSPGNLLSFPRFFGPGEFDPSVDVYAMKSHESSPKKEVYFMAIIDILTPYDTKKKAAHAAKTVKHGAGAEISTVNPEQYSKRFNEFMSNILT
B4: the “inhibition of PIP5K1A activity (PI(4)P to PI(4,5)P2)” value in the series with PIP5K1A was “inhibited”.

Source of the values: patent US20220168402A1, “PIP4Ks SUPPRESS INSULIN SIGNALING AND ENHANCE IMMUNE FUNCTION THROUGH A CATALYTIC-INDEPENDENT MECHANISM” (Cornell University, priority 2019, published 2022).
